Data on 5 molecules can be found in patent US20250026846A1 (JCR PHARMACEUTICALS, published 2025).

B1: recombinant monkey TfR (r monkey TfR: Sino Biological Inc.), crab-eating monkey TfR extracellular region with a histidine tag at the N-terminus (receptor)
chain: CKGVEPKTECERLAGTESPAREEPEEDFPAAPRLYWDDLKRKLSEKLDTTDFTSTIKLLNENLYVPREAGSQKDENLALYIENQFREFKLSKVWRDQHFVKIQVKDSAQNSVIIVDKNGGLVYLVENPGGYVAYSKAATVTGKLVHANFGTKKDFEDLDSPVNGSIVIVRAGKITFAEKVANAESLNAIGVLIYMDQTKFPIVKADLSFFGHAHLGTGDPYTPGFPSFNHTQFPPSQSSGLPNIPVQTISRAAAEKLFGNMEGDCPSDWKTDSTCKMVTSENKSVKLTVSNVLKETKILNIFGVIKGFVEPDHYVVVGAQRDAWGPGAAKSSVGTALLLKLAQMFSDMVLKDGFQPSRSIIFASWSAGDFGSVGATEWLEGYLSSLHLKAFTYINLDKAVLGTSNFKVSASPLLYTLIEKTMQDVKHPVTGRSLYQDSNWASKVEKLTLDNAAFPFLAYSGIPAVSFCFCEDTDYPYLGTTMDTYKELVERIPELNKVARAAAEVAGQFVIKLTHDTELNLDYERYNSQLLLFLRDLNQYRADVKEMGLSLQWLYSARGDFFRATSRLTTDFRNAEKRDKFVMKKLNDRVMRVEYYFLSPYVSPKESPFRHVFWGSGSHTLSALLESLKLRRQNNSAFNETLFRNQLALATWTIQGAANALSGDVWDIDNEF
notes: Bought from Sino Biological; also called r monkey TfR-ECD (Histag); not shown: histidine tag at the N-terminus
B2: humanized anti-hTfR antibody No. 3 (antibody, human IgG1, kappa)
light: DIVMTQTPLSLSVTPGQPASISCRSSQSLVHSNGNTYLHWYLQKPGQSPQLLIYKVSNRFSGVPDRFSGSGSGTDFTLKISRVEAEDVGVYYCSQSTHVPWTFGQGTKVEIKRTVAAPSVFIFPPSDEQLKSGTASVVCLLNNFYPREAKVQWKVDNALQSGNSQESVTEQDSKDSTYSLSSTLTLSKADYEKHKVYACEVTHQGLSSPVTKSFNRGEC
heavy: not shown
notes: IgG1; Expressed from pE-hygr(LC3) and pE-neo(HC3) in CHO cells; also called Humanized anti-hTfR antibody 3
B3: humanized anti-hTfR antibody No. 3N (antibody, human IgG1, kappa, V domains shown)
VH: EVQLVQSGAEVKKPGESLKISCKGSGYSFMNYWLGWVRQMPGKGLEWMGDIYPGGDYPTYSEKFKVQVTISADKSISTAYLQLSSLKASDTAMYYCARSGNYDEVAYWGQGTLVTVSS
VL: DIVMTQTPLSLSVTPGQPASISCRSSQSLVHSNGNTYLHWYLQKPGQSPQLLIYKVSNRFSGVPDRFSGSGSGTDFTLKISRVEAEDVGVYYCSQSTHVPWTFGQGTKVEIKR
notes: IgG1; also called Humanized anti-hTfR antibody 3N
B4: humanized anti-hTfR antibody No. 3-4 (antibody, human IgG1, kappa, V domains shown)
VH: B3 VH with M30T, L83W
VL: B3 VL with Y91F, Y92F
notes: IgG1
B5: anti-hTfR antibody No. 3 (mouse antibody produced by hybridoma Clone 3 line) (antibody, V domains shown)
VH: EVQLQESGAELVRPGTSVKISCKASGYSFTNYWLGWVKQRPGHGLEWIGDIYPGGDYPTYSEKFKVKAILTADTSSSSVYLHLSSLTSEDSAVYFCARSGNYDEVAYWGQGTLVTVST
VL: DIVMTQTTLSLPVSLGDQASISCRSSQSLVHSNGNTYLHWYLQKPGQSPKLLIYKVSNRFSGVPDRFSGSGSGTDFTLKISRVEAEDLGVFFCSQSTHVPWTFGGGTKLEIKR
notes: Whole mouse antibody purified from hybridoma supernatant on Protein G; also called mouse anti-hTfR antibody No. 3; pre-humanized anti-hTfR antibody

In assay [1] the target is T1, Fab GS-GAA (fusion protein between Fab anti-hTfR antibody 3N and hGAA).
T1 construct: also called Fab GS3-GAA; Fab-GS3-GAA
T1 sequence (heavy, as listed by the source, chain 2 of 2, one chain of several): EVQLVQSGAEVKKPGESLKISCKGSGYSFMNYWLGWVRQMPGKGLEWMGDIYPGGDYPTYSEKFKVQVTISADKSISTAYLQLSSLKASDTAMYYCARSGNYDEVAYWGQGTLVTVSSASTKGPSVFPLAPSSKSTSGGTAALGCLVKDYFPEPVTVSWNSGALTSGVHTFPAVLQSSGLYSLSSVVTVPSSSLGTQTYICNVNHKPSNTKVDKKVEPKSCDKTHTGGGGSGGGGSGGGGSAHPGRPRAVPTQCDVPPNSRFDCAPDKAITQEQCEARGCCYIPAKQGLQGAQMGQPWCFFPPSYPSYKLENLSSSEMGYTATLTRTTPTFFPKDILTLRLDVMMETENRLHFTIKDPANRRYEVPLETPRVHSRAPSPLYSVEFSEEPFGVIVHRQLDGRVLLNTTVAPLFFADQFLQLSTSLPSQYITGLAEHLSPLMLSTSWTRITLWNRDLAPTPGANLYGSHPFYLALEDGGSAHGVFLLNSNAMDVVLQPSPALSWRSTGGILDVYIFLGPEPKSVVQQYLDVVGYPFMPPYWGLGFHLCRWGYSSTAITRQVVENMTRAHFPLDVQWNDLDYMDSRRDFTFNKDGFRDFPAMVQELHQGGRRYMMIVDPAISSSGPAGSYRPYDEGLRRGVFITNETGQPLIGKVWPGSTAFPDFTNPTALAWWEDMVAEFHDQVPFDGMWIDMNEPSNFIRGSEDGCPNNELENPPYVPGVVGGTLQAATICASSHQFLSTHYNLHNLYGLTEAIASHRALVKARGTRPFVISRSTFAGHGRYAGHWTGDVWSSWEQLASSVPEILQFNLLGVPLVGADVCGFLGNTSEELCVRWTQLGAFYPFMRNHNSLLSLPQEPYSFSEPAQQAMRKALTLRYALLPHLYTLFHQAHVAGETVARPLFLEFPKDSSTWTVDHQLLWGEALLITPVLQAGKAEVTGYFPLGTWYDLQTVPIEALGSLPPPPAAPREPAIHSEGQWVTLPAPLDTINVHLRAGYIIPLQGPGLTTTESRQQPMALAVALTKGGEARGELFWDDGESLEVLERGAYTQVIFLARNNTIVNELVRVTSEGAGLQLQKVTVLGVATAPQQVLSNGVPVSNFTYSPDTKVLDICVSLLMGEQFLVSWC
The assay can be described thus: BLI (Octet RED96), His-tagged TfR ECD on Ni-NTA sensor. Here is the method: (§1) Each of the sample solutions prepared above by 2-fold dilution steps was added, 200 μL/well, to a 96-well plate, black (Greiner Bio-One Inc.). Each of the r human TfR-ECD (Histag) solution and the r monkey TfR-ECD (Histag) solutions prepared above was added, 200 μL/well, to predetermined wells. To respective wells for baseline, dissociation and washing were added HBS-P+, 200 μL/well. To wells for regeneration were added 10 mM Glycine-HCl (pH 1.7), 200 μL/well. To wells for activation was added 0.5 mM NiCl₂ solution, 200 μL/well. The plate and biosensor (Biosensor/Ni-NTA: ForteBio Inc., a division of Pall Corporation) were set in the prescribed positions of Octet RED96.
(§2) The measurement was performed at 25 to 30° C.
(§3) The affinity of the hGAA-anti-hTfR antibody 3N (IgG4) obtained in Example 26 to human TfR and monkey TfR was measured in accordance with the method described in Example 23.
(In general: Biolayer interferometry detects binding as a change in optical thickness at a sensor tip.)

The target of assay [2] is hGAA-anti-hTfR antibody 3N (IgG4). The assay is described as above. Here is the method: as §1, §2, §3
Chain of hGAA-anti-hTfR antibody 3N (IgG4) (heavy, as listed by the source, chain 2 of 2, one chain of several): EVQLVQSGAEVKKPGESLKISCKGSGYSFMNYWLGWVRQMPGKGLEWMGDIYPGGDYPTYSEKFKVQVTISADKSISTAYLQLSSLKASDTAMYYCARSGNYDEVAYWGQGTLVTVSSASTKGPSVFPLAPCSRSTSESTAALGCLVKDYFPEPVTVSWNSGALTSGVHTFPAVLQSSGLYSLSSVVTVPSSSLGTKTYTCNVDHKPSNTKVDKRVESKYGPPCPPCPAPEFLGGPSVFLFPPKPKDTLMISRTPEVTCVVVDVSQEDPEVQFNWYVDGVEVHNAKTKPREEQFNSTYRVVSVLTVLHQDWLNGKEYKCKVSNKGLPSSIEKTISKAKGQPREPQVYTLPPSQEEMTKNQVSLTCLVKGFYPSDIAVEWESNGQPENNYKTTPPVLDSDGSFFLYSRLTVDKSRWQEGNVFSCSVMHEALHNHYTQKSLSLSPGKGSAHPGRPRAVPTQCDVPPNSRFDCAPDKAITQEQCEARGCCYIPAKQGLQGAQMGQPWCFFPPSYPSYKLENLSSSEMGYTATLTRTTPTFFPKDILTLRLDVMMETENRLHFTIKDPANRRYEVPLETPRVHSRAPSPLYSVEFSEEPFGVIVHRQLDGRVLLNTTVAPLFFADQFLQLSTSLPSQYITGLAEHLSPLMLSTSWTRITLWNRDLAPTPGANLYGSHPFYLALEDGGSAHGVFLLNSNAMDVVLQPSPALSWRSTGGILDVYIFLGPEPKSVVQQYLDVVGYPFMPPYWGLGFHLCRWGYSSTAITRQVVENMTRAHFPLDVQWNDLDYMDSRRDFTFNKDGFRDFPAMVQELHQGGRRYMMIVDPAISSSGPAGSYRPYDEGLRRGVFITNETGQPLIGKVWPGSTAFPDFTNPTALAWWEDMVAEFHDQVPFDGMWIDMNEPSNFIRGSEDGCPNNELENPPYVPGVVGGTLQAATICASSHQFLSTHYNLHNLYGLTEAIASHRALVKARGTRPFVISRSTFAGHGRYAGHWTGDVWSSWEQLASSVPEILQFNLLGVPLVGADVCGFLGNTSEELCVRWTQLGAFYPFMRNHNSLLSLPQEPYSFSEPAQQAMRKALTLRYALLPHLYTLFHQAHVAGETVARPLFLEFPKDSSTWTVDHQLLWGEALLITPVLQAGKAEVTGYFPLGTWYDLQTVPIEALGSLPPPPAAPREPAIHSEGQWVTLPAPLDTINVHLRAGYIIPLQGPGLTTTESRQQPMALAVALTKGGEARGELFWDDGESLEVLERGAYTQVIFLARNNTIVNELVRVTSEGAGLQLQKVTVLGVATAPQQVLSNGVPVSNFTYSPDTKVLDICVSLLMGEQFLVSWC
For assay [3], the target named is T1, Fab GS-GAA (fusion protein between Fab …). Nature of the assay: BLI (Octet RED96), His-tagged TfR ECD on Ni-NTA sensor; Table 17-2, Fab GS-GAA.
For assay [4] the target is unchanged. The assay can be described thus: BLI (Octet RED96), His-tagged TfR ECD on Ni-NTA sensor; Table 21, Fab-GS3-GAA.
Assay [5] addresses B1. The assay can be described thus: BLI (Octet RED96), His-tagged TfR ECD on Ni-NTA sensor. Here is the method:
as §1, §2
The affinity of humanized anti-hTfR antibody No. 3 obtained in Example 13 and humanized anti-hTfR antibody No. 3N obtained in Example 17 to human TfR and monkey TfR was measured by the method described in Example 7. […] Besides, the measurement indicating the affinity of humanized anti-hTfR antibody No. 3 to monkey TfR differed from that shown in Table 7, but is an experimental error.

For assay [6], the target named is B1. Described as above. Here is the method:
as §1, §2
(§4) The affinity of the humanized anti-hTfR antibodies obtained in Example 13 to human and monkey TfRs was measured by the method described in Example 7.

Assay [7] deals with T2, recombinant human TfR (r human TfR: Sino Biological Inc.), hTfR extracellular region with a histidine tag at … (human, UniProt P02786 89-760).
T2 construct: Bought from Sino Biological; also called r human TfR-ECD (Histag); recombinant hTfR; not shown: histidine tag at the N-terminus
The assay is described as above. The procedure:
as §1, §2, §4

Assay [8] deals with T2, recombinant human TfR (r human TfR: …). The assay is described as above. Here is the method: as §1, §2
The affinity of humanized anti-hTfR antibody No. 3 obtained in Example 13 and humanized anti-hTfR antibody No. 3N obtained in Example 17 to […] was measured by the method described in Example 7. […] Besides, the measurement indicating the affinity of humanized anti-hTfR antibody No. 3 to human TfR differed from that shown in Table 6, but is an experimental error.
This is another data set of the same source.

Assay [9] deals with B1. Nature of the assay: BLI (Octet RED96).
The target in assay [10] is B1. The assay can be described thus: BLI (Octet RED96), His-tagged TfR ECD on Ni-NTA sensor. Here is the method: (§5) The purified product of anti-hTfR antibody No. 3 was subjected to 2-fold dilution steps with HBS-P+ (10 mM HEPES containing 150 mM NaCl, 50 μM EDTA and 0.05% Surfactant P20) to prepare antibody solutions of 7 different concentrations, 0.78125 to 50 nM (0.117 to 7.5 μg/mL). The antibody solution was used as the sample solution. The r human and r monkey TfRs were respectively diluted with HBS-P+ to prepare 25 μg/mL solutions, which were used as r human TfR-ECD (Histag) solution and r monkey TfR-ECD (Histag) solution, respectively.
as §1, §2

Assay [11] concerns the target T2, recombinant human TfR (r human TfR: …). The description is as above. The procedure: as §5, §1, §2
The source holds these as a separate data set.

Numbering of substitutions follows the chain as printed. Like-named read-outs stand apart in the source and are kept apart here.

In general, koff refers to the first-order rate constant of dissociation. As usually defined, the kon is a measure of how fast the partners come together. By Kd is commonly meant the free concentration of one partner at which half of the binding sites on the other are occupied at equilibrium, for simple one-to-one binding. Consider B1, for which the koff in assay [1] was 0.00501 s⁻¹; in [2] it was under 1e-07 s⁻¹; in assay [4] it was 0.0145 s⁻¹. Further, the values for the kon in [1], in assay [2] and in [4] were 329000 M⁻¹ s⁻¹, 203000 M⁻¹ s⁻¹ and 473000 M⁻¹ s⁻¹, respectively. The Kd in assay [2] is under 0.001 nM; in assay [3], 15.2 nM; in assay [4], 30.5 nM.

As for B2, the Kd in assay [5] was 1.32 nM; in [6], 1.12 nM; in assay [7] it was under 0.001 nM; in assay [8], under 0.001 nM. Moreover, the koff is 0.000806 s⁻¹ in assay [5], 0.000676 s⁻¹ in assay [6], under 1e-07 s⁻¹ in [7] and under 1e-07 s⁻¹ in assay [8]. The kon in [5] was determined as 609000 M⁻¹ s⁻¹; in assay [6], 603000 M⁻¹ s⁻¹; in assay [7], 1.19e+06 M⁻¹ s⁻¹; in assay [8], 847000 M⁻¹ s⁻¹.

B3: in [5], the Kd was found to be 0.0507 nM, the koff was 1.96e-05 s⁻¹ and the kon was found to be 386000 M⁻¹ s⁻¹. In assay [8], the Kd is under 0.001 nM, the koff was under 1e-07 s⁻¹ and the kon was 784000 M⁻¹ s⁻¹. Moreover, in [9], the “KD relative to that of humanized anti-hTfR antibody No. 3” value is about 0.033 fold and the “fold affinity against humanized anti-hTfR antibody No. 3” value was about 30 fold.

Regarding B4, in [6], the Kd was 0.26 nM, the koff turned out to be 0.000135 s⁻¹ and the kon worked out at 519000 M⁻¹ s⁻¹. Moreover, in assay [7], the Kd was under 0.001 nM, the koff is under 1e-07 s⁻¹ and the kon was determined as 1.01e+06 M⁻¹ s⁻¹.

For the molecule B5, in [10], the dissociation constant Kd is under 0.001 nM, the koff was under 1e-07 s⁻¹ and the kon came to 389000 M⁻¹ s⁻¹. In addition, in assay [11], the equilibrium dissociation constant (Kd) was under 0.001 nM, the koff is under 1e-07 s⁻¹ and the kon was determined as 653000 M⁻¹ s⁻¹.
